Source: the Human Domainome abundance scans (Beltran et al. 2025)
± gives the uncertainty stated by the source.

B1: Transitional endoplasmic reticulum ATPase, residues 26 to 106; numbered along this chain, P55072 (parent)
chain: LIVDEAINEDNSVVSLSQPKMDELQLFRGDTVLLKGKKRREAVCIVLSDDTCSDEKIRMNRVVRNNLRVRLGDVISIQPCP

Variants of: B1
Assay: abundance fitness (aPCA) (normalised: wild type 0, dead -1); higher = more abundant; growth selection in yeast, the domain comes from the species named
Conditions: Homo sapiens

Variant	abundance fitness
S15Y	0 ± 0.095
L1K	-0.292 ± 0.31
R68E	0.047 ± 0.084
G72L	-0.42 ± 0.072
N66S	-0.044 ± 0.061
K56P	-0.971 ± 0.2
R61T	-0.009 ± 0.092
I2V	-0.058 ± 0.068
E23F	-0.263 ± 0.21
D49G	-0.204 ± 0.054
C44T	-0.066 ± 0.07
D30H	-0.11 ± 0.12
V69W	-0.987 ± 0.24
V74R	0.036 ± 0.062
C44S	-0.032 ± 0.069
A6L	0.092 ± 0.051
Q25R	-0.081 ± 0.053
L71S	-0.004 ± 0.073
M21L	0.048 ± 0.074
I57Q	-0.816 ± 0.18
L26I	-0.078 ± 0.13
Q78F	-0.345 ± 0.12
K35G	-0.088 ± 0.071
A6E	-0.107 ± 0.059

Variant	abundance fitness
C52R	-0.192 ± 0.059
S15I	0.002 ± 0.077
E9D	0.041 ± 0.091
R70Y	0.005 ± 0.15
R68L	-0.033 ± 0.057
T51L	-0.117 ± 0.063
R70L	0.037 ± 0.06
S15C	-0.006 ± 0.066
C44M	0.085 ± 0.077
D73F	-0.861 ± 0.18
N11R	-0.042 ± 0.038
K56E	-0.088 ± 0.073
I75M	-0.2 ± 0.11
I75G	-0.944 ± 0.19
L47C	-0.05 ± 0.087
A42M	-0.018 ± 0.065
A6Q	0.007 ± 0.073
G29H	0.059 ± 0.17
V43A	-0.026 ± 0.064
I57C	-0.492 ± 0.16
I45G	-0.06 ± 0.036
D54K	0.08 ± 0.085
L26W	-0.447 ± 0.054
P79A	0.015 ± 0.063

Variant	abundance fitness
R39P	-0.079 ± 0.096
P19Q	0.093 ± 0.1
Q18K	-0.037 ± 0.19
G36R	-0.37 ± 0.056
T31F	-0.198 ± 0.09
M59I	-0.002 ± 0.14
T51W	-0.275 ± 0.068
R70H	-0.152 ± 0.11
K37L	-0.018 ± 0.082
P79C	-0.099 ± 0.096
N8K	-0.011 ± 0.07
V3Q	-0.891 ± 0.17
D4I	0.052 ± 0.12
V3L	-0.708 ± 0.12
E5H	-0.224 ± 0.1
E55A	-0.019 ± 0.061
I7Y	-0.238 ± 0.14
C80H	-0.064 ± 0.14
A42Y	-0.045 ± 0.22
P81T	-0.013 ± 0.12
N65T	-0.07 ± 0.1
I7G	-0.011 ± 0.031
A42H	0.027 ± 0.039
L33Q	-0.109 ± 0.087

Variant	abundance fitness
N60R	-0.325 ± 0.073
S12T	0.082 ± 0.082
M59S	-0.817 ± 0.13
V3P	-0.948 ± 0.31
L24E	-0.709 ± 0.079
S76V	0.023 ± 0.064
P79G	-0.083 ± 0.06
K38G	0.025 ± 0.067
N11G	-0.067 ± 0.04
R40S	-0.061 ± 0.054
K20E	-0.705 ± 0.12
A6T	0.046 ± 0.053
L67N	-0.757 ± 0.2
E9W	-0.098 ± 0.049
P19Y	0.072 ± 0.24
D30N	-0.176 ± 0.088
N11E	0.031 ± 0.069
L47V	-0.018 ± 0.052
N8C	-0.015 ± 0.058
F27N	-0.022 ± 0.12
R40Q	-0.039 ± 0.15
V43W	0.03 ± 0.14
V32G	-0.587 ± 0.049
V63A	0.054 ± 0.073

Variant	abundance fitness
K20P	-1.19 ± 0.36
L26F	-0.285 ± 0.23
L34Q	-0.461 ± 0.32
R58K	-0.013 ± 0.12
V62H	0.038 ± 0.14
K56F	-0.127 ± 0.1
D4E	-0.015 ± 0.095
C44P	-0.969 ± 0.14
V62F	-0.023 ± 0.12
E41Q	-0.098 ± 0.43
R39M	-0.142 ± 0.12
G72M	-0.392 ± 0.12
S12N	-0.086 ± 0.083
D49M	-0.78 ± 0.2
P79W	-0.304 ± 0.093
V46N	-0.749 ± 0.21
K38M	-0.018 ± 0.12
I7F	0.009 ± 0.099
K35R	0.006 ± 0.081
N8M	-0.099 ± 0.068
D49Y	-0.745 ± 0.23
N65G	-0.066 ± 0.056
T51E	0.05 ± 0.07
L1Y	-0.582 ± 0.26

Variant	abundance fitness
G36V	-0.218 ± 0.059
E23L	-0.148 ± 0.089
S17Q	-0.671 ± 0.1
N65M	-0.054 ± 0.1
N66C	-0.374 ± 0.27
N66Y	-0.176 ± 0.13
S76T	-0.146 ± 0.091
N60C	-0.182 ± 0.16
L71N	0.103 ± 0.14
R61S	-0.024 ± 0.092
C52V	-0.062 ± 0.054
V14A	-0.341 ± 0.048
S53V	-0.022 ± 0.053
S17G	-0.153 ± 0.043
D4H	-0.04 ± 0.26
M21E	-0.731 ± 0.31
K35N	0.032 ± 0.16
P19V	0.047 ± 0.054
V69S	-0.255 ± 0.072
S53F	-0.032 ± 0.069
N11C	-0.091 ± 0.059
E41I	-0.312 ± 0.14
V63M	-0.095 ± 0.11
S12K	-0.035 ± 0.065

Variant	abundance fitness
E41H	-0.167 ± 0.14
V63L	0 ± 0.061
C80M	0.055 ± 0.2
P79D	-0.383 ± 0.15
R58P	-0.927 ± 0.32
Q78H	-0.025 ± 0.12
N8D	0.075 ± 0.09
V46E	-0.649 ± 0.1
Q25M	-0.106 ± 0.091
I77W	-0.856 ± 0.27
Q78T	-0.003 ± 0.077
D49W	-0.923 ± 0.14
I75H	-0.695 ± 0.14
V69Q	-0.689 ± 0.085
S76L	-0.112 ± 0.06
N65P	-0.926 ± 0.21
R58Q	-0.185 ± 0.14
T51P	-0.306 ± 0.16
E55G	0.018 ± 0.043
I77E	-0.85 ± 0.22
G36Q	-0.688 ± 0.18
V74A	0.031 ± 0.077
V62R	-0.013 ± 0.056
I2Q	-0.164 ± 0.097

Variant	abundance fitness
I7E	0.127 ± 0.075
L71R	-0.102 ± 0.055
K37P	-0.118 ± 0.097
L26D	-0.768 ± 0.26
V43R	0.07 ± 0.053
L16C	-0.083 ± 0.087
Q25S	0.027 ± 0.056
K38Q	-0.051 ± 0.16
V13Y	0.044 ± 0.084
Q25A	-0.116 ± 0.052
L47T	-0.116 ± 0.099
G36T	-0.042 ± 0.096
L24I	-0.338 ± 0.099
G72K	-0.317 ± 0.097
N8V	-0.096 ± 0.062
R68M	0.01 ± 0.087
Q18T	-0.148 ± 0.096
C80Q	0.104 ± 0.3
I57R	-0.931 ± 0.14
R40P	-0.122 ± 0.11
S12V	-0.067 ± 0.043
D10A	-0.059 ± 0.041
A42I	-0.258 ± 0.16
E9L	-0.087 ± 0.044

Variant	abundance fitness
G29D	-0.172 ± 0.097
V63C	0.031 ± 0.09
V14Y	-0.803 ± 0.23
D4R	-0.627 ± 0.062
T51V	-0.145 ± 0.052
D50L	-0.146 ± 0.058
D30Y	-0.732 ± 0.2
E23C	-0.496 ± 0.26
E41K	0.045 ± 0.095
T31G	-0.063 ± 0.042
V69C	0.067 ± 0.072
V74K	0.008 ± 0.13
V46R	-0.951 ± 0.15
G29P	-1.06 ± 0.28
V63P	-0.896 ± 0.29
I2G	-0.357 ± 0.066
S76C	-0.015 ± 0.096
P19G	0.063 ± 0.045
C80E	-0.095 ± 0.17
D54I	-0.106 ± 0.14
K37D	-0.126 ± 0.17
V69I	-0.022 ± 0.079
D22N	-0.036 ± 0.069
G36D	-0.262 ± 0.093

Variant	abundance fitness
V14C	-0.11 ± 0.069
K37G	-0.05 ± 0.06
I75C	-0.265 ± 0.12
A42V	-0.065 ± 0.057
R40L	-0.033 ± 0.056
V32W	-0.988 ± 0.22
D4A	-0.009 ± 0.055
T51S	-0.052 ± 0.054
Q18R	-0.046 ± 0.062
Q78V	0.039 ± 0.064
F27I	-0.04 ± 0.062
G36A	-0.041 ± 0.036
R61G	-0.025 ± 0.061
L34K	-0.806 ± 0.2
S76E	-0.096 ± 0.088
N8I	-0.042 ± 0.14
S76A	-0.036 ± 0.073
N60V	-0.418 ± 0.071
P81N	0.073 ± 0.17
R39D	0.008 ± 0.12
L47P	-0.756 ± 0.17
E23V	-0.142 ± 0.087
A6F	0.093 ± 0.085
D73T	-0.252 ± 0.097

Variant	abundance fitness
K37N	-0.143 ± 0.32
R58C	-0.255 ± 0.13
R39Q	0.079 ± 0.12
K37T	-0.072 ± 0.21
D73W	-0.412 ± 0.13
I77A	-0.309 ± 0.075
K35M	-0.02 ± 0.082
L67R	-0.956 ± 0.12
R28S	-0.009 ± 0.055
T31A	-0.089 ± 0.038
N11T	-0.028 ± 0.066
P81C	-0.262 ± 0.29
D22I	-0.118 ± 0.085
L33V	0.042 ± 0.061
L16S	-0.595 ± 0.072
L24V	-0.429 ± 0.041
S76W	-0.207 ± 0.082
D4Q	-0.179 ± 0.071
E55V	-0.053 ± 0.046
R68P	-0.891 ± 0.17
N66T	0.007 ± 0.11
R40V	0.027 ± 0.045
M59T	-0.275 ± 0.1
D22V	-0.049 ± 0.054

Variant	abundance fitness
N66K	0.086 ± 0.091
R64Q	-0.105 ± 0.1
R58S	-0.253 ± 0.062
K56Q	0.067 ± 0.1
Q18W	-0.206 ± 0.1
C44V	-0.026 ± 0.074
Q18S	-0.052 ± 0.069
R64P	-1.06 ± 0.3
D73H	-0.135 ± 0.14
D30K	-0.257 ± 0.093
E55F	-0.052 ± 0.09
K56V	-0.021 ± 0.063
K20H	-0.389 ± 0.12
N65D	0.017 ± 0.11
V69R	-0.665 ± 0.079
C52M	-0.016 ± 0.092
R68I	-0.588 ± 0.21
D30L	-0.468 ± 0.07
M21Q	-0.752 ± 0.18
T31S	-0.028 ± 0.051
N8R	-0.083 ± 0.036
I77G	-0.817 ± 0.093
S53T	-0.019 ± 0.072
V3G	-0.811 ± 0.088

Variant	abundance fitness
S48I	0.031 ± 0.15
E5M	0.042 ± 0.063
Q25H	-0.168 ± 0.15
M21A	-0.638 ± 0.071
R58W	-0.625 ± 0.15
L1S	-0.264 ± 0.075
D4T	-0.017 ± 0.061
N60Y	-0.811 ± 0.39
K37S	0.03 ± 0.042
L24F	-0.321 ± 0.11
N60F	-0.889 ± 0.16
R64E	-0.65 ± 0.16
N60W	-0.899 ± 0.24
R70Q	-0.157 ± 0.12
L1T	-0.424 ± 0.13
R61H	-0.157 ± 0.18
S15D	-0.674 ± 0.1
G29F	-0.157 ± 0.098
D54G	-0.075 ± 0.044
K20S	-0.162 ± 0.056
P81I	-0.174 ± 0.15
T31Y	-0.161 ± 0.14
Q18L	-0.049 ± 0.052
G29S	-0.109 ± 0.062

Variant	abundance fitness
I57N	-0.716 ± 0.3
M21S	-1.03 ± 0.16
V46I	-0.175 ± 0.07
L71D	-0.086 ± 0.15
R39Y	-0.136 ± 0.1
F27R	0.009 ± 0.057
R70V	-0.076 ± 0.064
S76G	-0.021 ± 0.043
D49E	-0.094 ± 0.13
G36L	-0.757 ± 0.099
A42R	0.028 ± 0.051
I7L	0.048 ± 0.05
L71A	0.114 ± 0.066
L71P	-0.083 ± 0.061
P79T	-0.11 ± 0.088
L47F	0.052 ± 0.12
C52G	-0.197 ± 0.047
V13K	-0.183 ± 0.064
V43G	-0.289 ± 0.06
S48R	-0.015 ± 0.051
V13P	-0.457 ± 0.088
S76H	0 ± 0.17
